Experiment: yeast display, Sf9 membrane polyspecificity reagent, FACS + sequencing; frameworks hold sequencing errors
In short: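 Galactose-induced (36–48 hours) yeast carrying a synthetic nanobody display library were exposed to 10% biotinylated, detergent-solubilized Sf9 membrane reagent at 4 °C for 1 hour. FACS followed streptavidin microbead enrichment, using low and high (top ~1%) gates for expression (anti-HA) and reagent binding (streptavidin). Colony PCR, MiSeq 2 × 250 sequencing and CDR-length filtering followed. Labels for polyreactivity reflect the gate of origin.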

## LVQLVESGGGLVQAGGSLRLSCAASGSIFRRYAMGWYRQAPGKERELVAAISRNSGRTYYADSVKGRFTISRDNAKNTVYLQTNSLKPEDTAVYYCAKLTLSSRWYYIYDYWGQGTQVTVSS
  polyreactivity (PSR sort gate): high polyreactivity

## QVQLVESGGGLVQAGCSLRLSCAASGRTFYRYTMGWYRQAPGKERELVAAISISGGSTYYSDSVKGRFTISRDNEKNTFYLQMNSLKPEDSAVYYCAATSWGTYYRRLYYWGQATQVTVSS
  polyreactivity (PSR sort gate): high polyreactivity

## QVQLVETGGGLVQAGGSLRLSSAASGFTFGTYAMGWYRQAPGKERELVAAITGSGVRTYYADSVKGRFTISRDIAKYTVFLQMNSLKPEDTAVYYCAADYVVPLAFWTFRFDYWGQGTQVTVSS
  polyreactivity (PSR sort gate): low polyreactivity

## QVQLVESGGGLVQAGGSLRLSCAASGRIFDYNVMGWYRQPPGKESELVAAISWDGDSTYYADSVKGRFTISRDNAKNSVYLQMKSLKPEDTAVYYCNRVEGGTSWADEMNYWGQGTQVTVSS
  polyreactivity (PSR sort gate): low polyreactivity

## QLQLVESGGGLVQAGGSLRLSCAASGIIFIYNGMGWYRQAPGKERELVATINWSGGNTYYADSVKGRFTISRDNAKNTVYLQMNSLKPEDTAVYYCAVRGSRYWGYDYWGQGTQVTVSS
  polyreactivity (PSR sort gate): low polyreactivity

## QVQLVESGGGLVQAGGSLRLSCAASGFIFTGNAMGWYRQAPGKERELLAAISSSGTRTYYADSVKGRFTISRDNASNTVYLQMNSLKPEDTAVYYCNKLYLVWNFYSGYDYWGQGTQVTVSS
  polyreactivity (PSR sort gate): high polyreactivity

## QVQLVESGGGLVQAGGSLRLSCSASGRTFSAYAMGWDRPAPGKERELVARITSVDSTNYADSVKGRFTISRDNAKNSVYLKMNSLTPEDTAVYYCNATFCYPFFDYDDYWGQGTQVTVSS
  polyreactivity (PSR sort gate): low polyreactivity

## QVQHVESGGGLVQAGVSLRLSCAASGLTFTRYAMGWDRQAPGKERELVAAISWSGGSTYYADSVKGRFTISRDNAKNTVYLQMNSLKPEDTAVYYCAAEPYKQYTGYYYSGFEFWGQGTQVTVSS
  polyreactivity (PSR sort gate): high polyreactivity

## QVHLVESGGGLVQAGGSLRLSCAASGNTFYQYAMGWYRQAPGKERELVAAISSSGGSTYYADSVKGRFTISRDNAKNTVYLQMNSLKPEDTAVYYCATDKWYGYYYWGPGTQVTVSS
  polyreactivity (PSR sort gate): low polyreactivity

## QVQLVESGGGLVQAGGSLRLSCAASGSTFQQYAMGWYRQAPGKERELVAAITGSTGSTYYADSVKGRFTISRDNAKNTVYLQMNSLKPEDTAVYYCNAVRYSRYYRKYNYWGQGTQVTVSS
  polyreactivity (PSR sort gate): high polyreactivity

## QVQLVESGGGLVQAGGSLRLSCAASGNTFGIYAMGWYRPAPGKERELVAAISSGTSTNYADSVKGRFTISRDNAKNTVYLQMNSLKPEDTAVYYCNADDQYQDVREDYWGQGTQVTVSS
  polyreactivity (PSR sort gate): low polyreactivity

## QVQLVESGGGLVQAGGSLRLSCAASGIYYNAMGWYRQAPGKERELVAAITTGDRTNYADSVKGRFTISRDNAKNTVYLQMNCLKPEDTAVYYCNAVVERLSSTARDFAYDYWGQGTQVTVSS
  polyreactivity (PSR sort gate): low polyreactivity

## QVQLVESGGGLVQAGGSLRLSCAASGGIFRGYAMGWYRQAPGKERELVATSRSSGRTNYADSVKGRFTISRDNAKNTVYLQMNSLKPEDTAVYFCNKRRWWQYDSWGDWVLGGDDYWGQGTQVTVSS
  polyreactivity (PSR sort gate): low polyreactivity

## QVQLVESGVGLLQAGGSLRISCAASGSIFFDNSMGRYRQAPGKERELVAAITWSGSRTYYADSVKGRFTISRDNAKNTVYLQMNSLKPEDTAVYYSNAVYWWYWALFTVGRYDYWGQGTQVTVSS
  polyreactivity (PSR sort gate): high polyreactivity

## QVQLVESGGGLVQAGGSLRLSCAASGTIFYDNAMGWYRQAPAKERELVASIRWSGDSTYYADSVKGRFTISRDNAKNTVYLQMISLKPEDTAVYYCAADPVEPYFTAIAYDYWGQGTQVTVSS
  polyreactivity (PSR sort gate): low polyreactivity

## QVQLVESGGGLVQAGGSLRLSCPASGSTFVLNAMGWYSQAPGKERELVAAITGSGSTNYADSVKGRFTISRDNAKNTVYLQMNRLKPEDTAVYYCATAAVYPIPFGYWGQGTQVTVSS
  polyreactivity (PSR sort gate): low polyreactivity

## QVKLKESVGGLVQAGGSLRLSCAASGSISATGNMGWYRQAPGEERELVAAINFGSNTYYADSVKGRFTISRDNAKNTVYLQKSGLKPEDTPVYYCAVDGCYVGPYYYWGQGTQVTVSS
  polyreactivity (PSR sort gate): high polyreactivity

## QVQRVESGGGLVQAGGSLRLSCAASGSIFYVYVMGWYRLAPGKERELVAGISYRGGSTYYADSVKGRFTISRDNAKNTVYLQMNSLKPEDTAVYYCNAGVWTYWHIEMDYWGQGTQVTVSS
  polyreactivity (PSR sort gate): low polyreactivity

## QVHLVESGGVLVQAGGSLLLSCGACGSIFAQYTMGWYRNAPGKDRELVAAISSSGGSTYYADSVKGRFTISRDNANNTFYLQMNSLKAEDTAVYYCAARGAHYLRSGDHWGQGTQVNVSS
  polyreactivity (PSR sort gate): low polyreactivity

## QVQLVESGGGLVQAGGSLRLSCAASGGIFGWYTMGWYRQAPGKERELVAAINFSGSRTYYADSVKGRFTISRDNAKNTVYLQMNSLKPEDTAVYYCNAVYHQFREEYWGQGTQVTVSS
  polyreactivity (PSR sort gate): high polyreactivity

## QVQLVESGGGLVQAGGSLRLSCAASGLTFDYYDMGWYRQAPGKERELVASITWRGSSTYYADSVKGRFTISRDNAKNTVYLQMYSLKPEDTAVYYCAADPQSTIRDYWGQGTQVTVSS
  polyreactivity (PSR sort gate): high polyreactivity

## QVQLGESGGGLVQAGGSLRLSCAASGSIFKWYAMGWYRQAPGKERELVAAISASGGSTYYADSVKGRFTISRDNAKNSVYLQMNSLKPEDTAVYYCNTDHYYSSRHYDYWGQGTQVTVSS
  polyreactivity (PSR sort gate): low polyreactivity

## QVQLVESGGRLVQAGRSLRLSCAASGSTFYLYAMGWYRQAPGKERELVASISIGGSTNYADSVKGRFTISRDNAKNTVYLQMNSLKPEDTAVYYCNADYYYVRTVRRLGYWGQGSQVTVSS
  polyreactivity (PSR sort gate): low polyreactivity

## QVQHVESGGGLVQAGGSLRLSCAASGFIFPVNAMGWYRQAPGKERELVAAITYSTGSTYYADSVKGRFTISRDNAKNTVYLQMNSLKPEDTAVYSCAADVPPGEVVTNDYWGQGTQVTVSS
  polyreactivity (PSR sort gate): low polyreactivity

## QVQLVESGGGLVQAGGSLRFSCADSGSIFVRYAMGWYRQAPGKERELVAAISVRGGRTYYADSVKGRFTISRDNAKNTVYLQMNSLKPEDTAVYYCAAQLYYYYTYVPPGGYWGQGTQVTVSS
  polyreactivity (PSR sort gate): high polyreactivity

## QVQLVESGGGLVQAGGSLRLSCAASGSTFQIYTMGWYRQAPGKERELVAAITNGGGSTYYADSVKGRFTISRDNAKNTVYLQMNSLKPEDTAVYYCAAEQRYPLIILYDYWGQGTHVTVSS
  polyreactivity (PSR sort gate): low polyreactivity

## QVQLVESGVGLVKAGGSLRLSCAASGSTFNGYGMGWYRQAPGKERELVAAMSWSGGSTYYADSVKGRFTISRDNAKNTGYLLMNSLKPEDTAVYYCAALTHYGGYGYTYDYWGQGTQVTVSS
  polyreactivity (PSR sort gate): low polyreactivity

## QVQLVESGGGLVQAGGSLRLSCAASGSTFYYMGWSRQAPGKERELVAAITQSGGSTYYADSVKGRFTISRDNAKNTVYLQMNSLKPEDTAVYYCAARYASPRYKSKMDYWGQGTQVTVSS
  polyreactivity (PSR sort gate): high polyreactivity

## QVQLEESGGGLVQAGGSLRLSCAASGSIFRRYARGWYRQAPGKERELVAAISRSGSSTYADSVKGRFTISRDNAKNTVYLQMNSLKPEDTAVYYCAASYAFLYYGYDSWGQGTQVTVSS
  polyreactivity (PSR sort gate): low polyreactivity

## QVQLVESGGGLVQAGGSLRLSCPASGSTFLFNAMGWYRQAPGKERELVAAIRSDGSTDYADSVKGRFTISRDNAKTTVYLQMNSLKPEDTAVYYCAAESITGYVSDFDYWGQGTQVTVSS
  polyreactivity (PSR sort gate): low polyreactivity

## QVQLVESGGGLVQAGGSLRLSCAASGSIFRLYAMGWYRQAPGKERELVAAITRGDSTNYADSVKGRFTISRDNAKNTVYLQMNSLKPEDTAVYYCAVTGRLYAHPQGYDYWGQGTQVTVSS
  polyreactivity (PSR sort gate): low polyreactivity

## QVQLVESGGGCSGGRSLRLSCAASGLIFVDNAMGWYRQAPGKERELVAAITWSTGSTYYADSVKGRFTISRDNAKNTVYLQMNSLKPEDTAVYYCNKRYKYRYYYWGQGTQVTVSS
  polyreactivity (PSR sort gate): low polyreactivity

## QVQLVESGGGLVQAGGSLRLSCAASGSTSHQYAMGWYRQAPGKERELVAAISSRAGSTYYADSVKGRFTISRDNAKNTVYLQMNSLKPEDTAFYYCAADADSWKWGYDYWGQGTQVTVSS
  polyreactivity (PSR sort gate): low polyreactivity

## QVQLVESGGGLVQAGGSLRLSCAASGSIFYYYAMGWYRQAPGKERELVAAIDFGGGSTYYADSVKGRFTISRDNEKNTVYLQMNSLKPEDTAVYYCAARTFKDAGTAYGSWGQGTQETVSS
  polyreactivity (PSR sort gate): high polyreactivity

## QVQLVESGGGLVQAGGSLRLSCAASGRIFPFYVMGWYRQAPGKERELVATINWSGGSTYYADSVKGRFTISRDNAKNTVYLQMNSLKPEETAVYYCNAAPSDDYDYWGQGTQVTVSS
  polyreactivity (PSR sort gate): low polyreactivity

## QVQRVESGGGLVQAGGSLRLSCAASGNTFTVNAMGWYRQAPGKERELVAAINYSGGSTYYADSVKGRFTISRDNAKNTVYLQKNSLKPEDTAVYYCAASPDELLYEMYYWGQGTQVTVSS
  polyreactivity (PSR sort gate): low polyreactivity

## QVQLVESGGGLVQAGGSLRLSCAASGGTFAIYVKGWYRLAPGKERELVAAITRVGSTYADSVKGRFTISRDNAKNTVYLQMNSLKPEDTAVYYCAAVSGVRSGPWRYDYLGQGTQVTVSS
  polyreactivity (PSR sort gate): high polyreactivity

## QVQLVESGGGLVQAGGSLRLSCAASGFTFVYYVMGWYRQAPGKERELVAAINAGGGSTYYADSVKGRFTISRDNAKNTVYLQMNSLKPEDTAVYYCNARVRVRLGRNWSSYYYCGQGTQVTVSS
  polyreactivity (PSR sort gate): high polyreactivity

## QVQLEESGGGLVQAGGSLRLSCAASGFNFWVYAMGWYRQAPGKERELVAAISYNGGRTYYADSVKGRFTISRDNAKNTVYLQMNSLKPEDTAVYYCASLPAPTGRGDYWGQGTQVTVSS
  polyreactivity (PSR sort gate): high polyreactivity

## QVQLVESGGGLVQAGGSLRLSCAASGSIFGGYTMGWYRQAPGKERELVAAISRRGGNTYYADSVKGRFTISRDYAKNTVYLHMKSMKPEDTAVYYCAVRWPSARIPVKLDYWGQGTQVTVSS
  polyreactivity (PSR sort gate): high polyreactivity

## QVQLVESGGGLVQAGGSLRLSCAASGSIFSYYAMGWYRQAPGKERELVAAITTSGGSTYYADSVKGRFTISRDNAKNTVYLQMNSLKPEDTAVYYCNAGPYWWYYGEDYWGQGSQVTVSS
  polyreactivity (PSR sort gate): low polyreactivity

## QVQLVESCGGLVQAGGSLRLSCAAYGSIFTFYAMGWYRQAPGKERELVAAISSGGDTYYADSVTGRFTISRDNAKNTVYLQMNSLKPEDTAVYYCAADWRGSYLYGYYYWGQGTQVTASS
  polyreactivity (PSR sort gate): low polyreactivity

## QVQLVESGGGLVQAGGSLRLSCAASGFIFDSYAMGWYRQAPGKERELVAAISYSGGNTYYADSVKGRFTISRDNAKNTVYLQMNSLKPEDTAVYYCAAEWSDSRWWRLWWYGEDDYWGQGTQVTVSS
  polyreactivity (PSR sort gate): high polyreactivity
